Assay results from patent US20100129869.

Experiments:
Test in all cases: cell_activity
[1] = test system: ZFN 12176 (engineered); details: pair with ZFN 12172; CHO clone 1F1.6, Surveyor
[2] = test system: ZFN 12172 (engineered); details: pair with ZFN 12176; CHO clone 1F1.6, Surveyor
[3] = test system: ZFN 9461 (engineered); details: pair with ZFN 7844; CHO-S GS-/- B3, Surveyor
[4] = test system: ZFN 9477 (engineered); details: pair with ZFN 9476; CHO-S GS-/- B3, Surveyor
[5] = test system: ZFN 9476 (engineered); details: pair with ZFN 9477; CHO-S GS-/- B3, Surveyor
[6] = test system: ZFN 7844 (engineered); details: pair with ZFN 9461; CHO-S GS-/- B3, Surveyor
[7] = test system: ZFN 8361 (engineered); details: pair with ZFN 8365; CHO cells, Surveyor
[8] = test system: ZFN 9075 (engineered); details: pair with ZFN 9372
[9] = test system: ZFN 9372 (engineered); details: pair with ZFN 9075
[10] = test system: ZFN 8365 (engineered); details: pair with ZFN 8361; CHO cells, Surveyor
[11] = wt FokI, CHO-K1, Surveyor, 24% with obligate heterodimer FokI, 25% in CHO-S
[12] = HEK293, CEL-I, also active in K562

Work on “AAGAAGGGTCATCAG (double strand) [CHO FUT8 exon 10 ZFN 12176 half-site]” yielded an activity (% modified alleles) [1] of 7.5.
“AAGGAGGCAAAGACAAAG (double strand) [CHO FUT8 exon 10 ZFN 12172 half-site]” gave an activity (% modified alleles) [2] of 7.5.
With “AGGGAAGGTCTCCGTT (double strand) [CHO DHFR exon 1 ZFN 9461 half-site]” the activity (% modified alleles) [3] was 15.
For “AGTCCGGGGGGTGGTG (double strand) [CHO DHFR intron 1 ZFN 9477 half-site]”, the activity (% modified alleles) [4] was 18.
“CATGGGTAGCCGCTGA (double strand) [CHO DHFR intron 1 ZFN 9476 half-site]” gave an activity (% modified alleles) [5] of 18.
In the case of “CCAATGCTCAGGTACT (double strand) [CHO DHFR exon 1 ZFN 7844 half-site]”, the activity (% modified alleles) [6] is reported as 15.
“CTGGGTTGATGGTACTGGAGAAGGACTG (double strand) [CHO GS exon 2 ZFN 8361 half-site]” gave an activity (% modified chromosomes) [7] of 7.
For “GAATGGTGCAGGCTGC (double strand) [CHO GS exon 6 ZFN 9075 half-site]”, the activity (% modified chromosomes) [8, 11] was 26.
“GTTCCCAGGAATGGGCTTGGGG (double strand) [CHO GS exon 6 ZFN 9372 half-site]” gave an activity (% modified chromosomes) [9, 11] of 26.
“TATACATGGCTTGGACTTTCTCACCCTG (double strand) [CHO GS exon 2 ZFN 8365 half-site]” showed an activity (% modified chromosomes) [10] of 7.
Work on human GS exon 6 target yielded an activity [8, 12] of 21 % NHEJ and an activity [9, 12] of 21 % NHEJ.
